Experimental data published in the supplement of paper PMC9112550, “Optimization of the antimicrobial peptide Bac7 by deep mutational scanning” (BMC Biology, 2022).

System: Escherichia coli TOP10
Experiment: shrunken log2 fold change of peptide-encoding DNA abundance (4.5 h post-induction vs induction); higher = less antimicrobial activity (less host growth inhibition)
Conditions: time post-induction: 4.5 h; library: site-saturation at positions 5, 18, 19, 20
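Further: peptides expressed intracellularly from a pBAD plasmid library in pooled LB shake-flask culture, induced with 0.3% L-arabinose, DNA abundance read by NGS, three biological replicates, DESeq2 with apeglm shrinkage.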

Sequence | shrunken log2 fold change
RRIRNRPPRLPRPRPRPCCRPRP | -0.0438
RRIRNRPPRLPRPRPRPCEPPRP | -0.183
RRIRNRPPRLPRPRPRPCHWPRP | 0.065
RRIRNRPPRLPRPRPRPCIEPRP | -0.117
RRIRNRPPRLPRPRPRPCKAPRP | -0.1
RRIRNRPPRLPRPRPRPCKEPRP | -0.451
RRIRNRPPRLPRPRPRPCKPPRP | -0.0414
RRIRNRPPRLPRPRPRPCLFPRP | -0.608
RRIRNRPPRLPRPRPRPCLQPRP | -0.344
RRIRNRPPRLPRPRPRPCLTPRP | 0.0253
RRIRNRPPRLPRPRPRPCLWPRP | -0.359
RRIRNRPPRLPRPRPRPCMAPRP | -0.346
RRIRNRPPRLPRPRPRPCMGPRP | -0.256
RRIRNRPPRLPRPRPRPCPGPRP | 0.00341
RRIRNRPPRLPRPRPRPCPLPRP | 0.011
RRIRNRPPRLPRPRPRPCPWPRP | -0.141
RRIRNRPPRLPRPRPRPCQEPRP | 0.15
RRIRNRPPRLPRPRPRPCQKPRP | 0.00489
RRIRNRPPRLPRPRPRPCQLPRP | -0.0247
RRIRNRPPRLPRPRPRPCRGPRP | -0.0345
RRIRNRPPRLPRPRPRPCVGPRP | -0.129
RRIRNRPPRLPRPRPRPCVVPRP | -0.0224
RRIRNRPPRLPRPRPRPDAIPRP | 0.0267
RRIRNRPPRLPRPRPRPDATPRP | 0.0488
RRIRNRPPRLPRPRPRPDCIPRP | -0.194

Sequence | shrunken log2 fold change
RRIRNRPPRLPRPRPRPDDFPRP | -0.00663
RRIRNRPPRLPRPRPRPDDPPRP | -0.0062
RRIRNRPPRLPRPRPRPDESPRP | -0.109
RRIRNRPPRLPRPRPRPDFCPRP | 0.0953
RRIRNRPPRLPRPRPRPDHGPRP | -0.319
RRIRNRPPRLPRPRPRPDKHPRP | -0.0308
RRIRNRPPRLPRPRPRPDKSPRP | -0.193
RRIRNRPPRLPRPRPRPDLDPRP | 0.0497
RRIRNRPPRLPRPRPRPDNIPRP | -0.312
RRIRNRPPRLPRPRPRPDNVPRP | -0.0161
RRIRNRPPRLPRPRPRPDPFPRP | -0.582
RRIRNRPPRLPRPRPRPDPSPRP | 0.152
RRIRNRPPRLPRPRPRPDQVPRP | -0.148
RRIRNRPPRLPRPRPRPDRFPRP | -0.148
RRIRNRPPRLPRPRPRPDRIPRP | -0.0387
RRIRNRPPRLPRPRPRPDWGPRP | 0.128
RRIRNRPPRLPRPRPRPEAGPRP | -0.0775
RRIRNRPPRLPRPRPRPEAHPRP | -0.0208
RRIRNRPPRLPRPRPRPEALPRP | 0.102
RRIRNRPPRLPRPRPRPEANPRP | -0.0185
RRIRNRPPRLPRPRPRPECVPRP | -0.127
RRIRNRPPRLPRPRPRPEDKPRP | 0.114
RRIRNRPPRLPRPRPRPEDNPRP | 0.0315
RRIRNRPPRLPRPRPRPEDSPRP | -0.0784
RRIRNRPPRLPRPRPRPEDYPRP | -0.133

Sequence | shrunken log2 fold change
RRIRNRPPRLPRPRPRPEFAPRP | 0.175
RRIRNRPPRLPRPRPRPEFFPRP | -0.064
RRIRNRPPRLPRPRPRPEHIPRP | -0.313
RRIRNRPPRLPRPRPRPEIAPRP | -0.0256
RRIRNRPPRLPRPRPRPEKFPRP | -0.165
RRIRNRPPRLPRPRPRPELTPRP | 0.162
RRIRNRPPRLPRPRPRPENHPRP | -0.124
RRIRNRPPRLPRPRPRPEQDPRP | 0.0235
RRIRNRPPRLPRPRPRPEQSPRP | 0.338
RRIRNRPPRLPRPRPRPERKPRP | -0.016
RRIRNRPPRLPRPRPRPESNPRP | 0.0856
RRIRNRPPRLPRPRPRPESYPRP | -0.0446
RRIRNRPPRLPRPRPRPETPPRP | 0.36
RRIRNRPPRLPRPRPRPEVYPRP | 0.0702
RRIRNRPPRLPRPRPRPEWTPRP | -0.0178
RRIRNRPPRLPRPRPRPEYTPRP | -0.0431
RRIRNRPPRLPRPRPRPFAQPRP | -0.321
RRIRNRPPRLPRPRPRPFCCPRP | -0.257
RRIRNRPPRLPRPRPRPFDHPRP | -0.0345
RRIRNRPPRLPRPRPRPFDVPRP | -0.0429
RRIRNRPPRLPRPRPRPFFFPRP | 0.0988
RRIRNRPPRLPRPRPRPFFNPRP | -0.725
RRIRNRPPRLPRPRPRPFGSPRP | -0.0105
RRIRNRPPRLPRPRPRPFHMPRP | -0.458
RRIRNRPPRLPRPRPRPFHVPRP | -0.128

Sequence | shrunken log2 fold change
RRIRNRPPRLPRPRPRPFHWPRP | -0.186
RRIRNRPPRLPRPRPRPFKLPRP | -0.155
RRIRNRPPRLPRPRPRPFMFPRP | -0.399
RRIRNRPPRLPRPRPRPFNGPRP | -0.0926
RRIRNRPPRLPRPRPRPFPKPRP | 0.0299
RRIRNRPPRLPRPRPRPFPSPRP | -0.0692
RRIRNRPPRLPRPRPRPFQVPRP | -0.134
RRIRNRPPRLPRPRPRPFSHPRP | -0.015
RRIRNRPPRLPRPRPRPFSQPRP | -0.021
RRIRNRPPRLPRPRPRPFTPPRP | -0.197
RRIRNRPPRLPRPRPRPFVHPRP | -0.568
RRIRNRPPRLPRPRPRPFWNPRP | -0.151
RRIRNRPPRLPRPRPRPFYWPRP | -0.0682
RRIRNRPPRLPRPRPRPGAAPRP | 0.417
RRIRNRPPRLPRPRPRPGAIPRP | 0.0755
RRIRNRPPRLPRPRPRPGAKPRP | 0.362
RRIRNRPPRLPRPRPRPGANPRP | -0.151
RRIRNRPPRLPRPRPRPGEMPRP | 0.336
RRIRNRPPRLPRPRPRPGFPPRP | -0.00149
RRIRNRPPRLPRPRPRPGGAPRP | 0.283
RRIRNRPPRLPRPRPRPGGRPRP | 0.0809
RRIRNRPPRLPRPRPRPGHEPRP | -0.265
RRIRNRPPRLPRPRPRPGHMPRP | -0.147
RRIRNRPPRLPRPRPRPGIMPRP | -0.186
RRIRNRPPRLPRPRPRPGITPRP | -0.326

Sequence | shrunken log2 fold change
RRIRNRPPRLPRPRPRPGKGPRP | 0.101
RRIRNRPPRLPRPRPRPGLIPRP | 0.16
RRIRNRPPRLPRPRPRPGMGPRP | 0.307
RRIRNRPPRLPRPRPRPGNMPRP | -1.16
RRIRNRPPRLPRPRPRPGNRPRP | -0.0775
RRIRNRPPRLPRPRPRPGPHPRP | 0.0143
RRIRNRPPRLPRPRPRPGPKPRP | 0.284
RRIRNRPPRLPRPRPRPGPNPRP | 0.0126
RRIRNRPPRLPRPRPRPGPTPRP | 0.3
RRIRNRPPRLPRPRPRPGPWPRP | 0.0802
RRIRNRPPRLPRPRPRPGRCPRP | 0.143
RRIRNRPPRLPRPRPRPGRPPRP | 0.123
RRIRNRPPRLPRPRPRPGSFPRP | -0.0339
RRIRNRPPRLPRPRPRPGSSPRP | 0.0992
RRIRNRPPRLPRPRPRPGSWPRP | 0.257
RRIRNRPPRLPRPRPRPGTRPRP | 0.00131
RRIRNRPPRLPRPRPRPGTWPRP | 0.218
RRIRNRPPRLPRPRPRPGVDPRP | -0.154
RRIRNRPPRLPRPRPRPGVGPRP | 0.402
RRIRNRPPRLPRPRPRPGYRPRP | -0.514
RRIRNRPPRLPRPRPRPHAEPRP | 0.00246
RRIRNRPPRLPRPRPRPHASPRP | 0.065
RRIRNRPPRLPRPRPRPHCAPRP | 0.0341
RRIRNRPPRLPRPRPRPHCDPRP | -0.292
RRIRNRPPRLPRPRPRPHEGPRP | -0.015

Sequence | shrunken log2 fold change
RRIRNRPPRLPRPRPRPHEKPRP | -0.0437
RRIRNRPPRLPRPRPRPHELPRP | -0.0632
RRIRNRPPRLPRPRPRPHGAPRP | 0.245
RRIRNRPPRLPRPRPRPHHCPRP | -0.0844
RRIRNRPPRLPRPRPRPHKEPRP | 0.0155
RRIRNRPPRLPRPRPRPHKKPRP | -0.00756
RRIRNRPPRLPRPRPRPHKQPRP | -0.359
RRIRNRPPRLPRPRPRPHKTPRP | -0.22
RRIRNRPPRLPRPRPRPHLDPRP | 0.118
RRIRNRPPRLPRPRPRPHLHPRP | -0.121
RRIRNRPPRLPRPRPRPHNIPRP | -0.54
RRIRNRPPRLPRPRPRPHNKPRP | -0.483
RRIRNRPPRLPRPRPRPHNSPRP | -0.767
RRIRNRPPRLPRPRPRPHPGPRP | -0.0788
RRIRNRPPRLPRPRPRPHPRPRP | 0.0824
RRIRNRPPRLPRPRPRPHPWPRP | 0.0589
RRIRNRPPRLPRPRPRPHQPPRP | 0.0075
RRIRNRPPRLPRPRPRPHTDPRP | -0.373
RRIRNRPPRLPRPRPRPHTLPRP | -0.39
RRIRNRPPRLPRPRPRPHTNPRP | 0.0886
RRIRNRPPRLPRPRPRPHTYPRP | -0.501
RRIRNRPPRLPRPRPRPHVDPRP | 0.00884
RRIRNRPPRLPRPRPRPHWSPRP | -0.285
RRIRNRPPRLPRPRPRPHYAPRP | -0.0337
RRIRNRPPRLPRPRPRPHYDPRP | -0.775
